Source: article PMC4449784 (2015)

T1: HIV-1 Nef VY8 variant with Leu at P4 peptide on HLA-B*35:01 (human)
T1 peptide: VPLLPMTY

T2: HIV-1 Nef VY8 variant with Phe at P3 peptide on HLA-B*35:01 (human)
T2 peptide: VPFRPMTY

T3: HIV-1 Nef VY8 variant with Met at P3 peptide on HLA-B*35:01 (human)
T3 peptide: VPMRPMTY

T4: HIV-1 Nef VY8 variant with Ala at P3 peptide on HLA-B*35:01 (human)
T4 peptide: VPARPMTY

T5: HIV-1 Nef VY8 variant with Val at P3 peptide on HLA-B*35:01 (human)
T5 peptide: VPVRPMTY


What was measured:
Experiment in all cases: cytokine release
[1] = molecular target: T1, HIV-1 Nef VY8 variant with Leu at P4 …
[2] = molecular target: T2, HIV-1 Nef VY8 variant with Phe at P3 …
[3] = molecular target: T3, HIV-1 Nef VY8 variant with Met at P3 …
[4] = molecular target: T4, HIV-1 Nef VY8 variant with Ala at P3 …
[5] = molecular target: T5, HIV-1 Nef VY8 variant with Val at P3 …

| Binder | binding result [1] | binding result [2] | binding result [3] | binding result [4] | binding result [5] |
| --- | --- | --- | --- | --- | --- |
| A1-S/B11-J1 (TCR) alpha AV1-1*01 AJ26*01 CDR3: CAVSDNYGQNFVF beta BV11-2*01 BJ1-1*01 CDR3: CASSLDLVSTEAFF | no recognition |  |  |  |  |
| H127 (A1-J31/B11) (TCR) alpha AV1-1*01 AJ31*01 CDR3: CAVTSGDARLMF beta BV11-1*01 BJ2-7*01 CDR3: CASSSDIVSYEQYF |  | no recognition | recognises | no recognition | no recognition |
| TCR-139 (A1-T/B11-J1) (TCR) alpha AV1-1*01 AJ26*01 CDR3: CAVTDNYGQNFVF beta BV11-2*01 BJ1-1*01 CDR3: CASSLDLVSTEAFF | no recognition | recognises | recognises | recognises | recognises |
